To fix the notation:
B1: glmS ribozyme (parent)
chain: AUAAAAGCGCCAGAACUACAGAAAUGUAGUUGACGAGGAGGAGGUUUAUCGAAUUUUCGGCGGAUGCCUCCAAA

± gives the standard error. For some assays here: Fewer inactive variants are shown than the library holds. Some results are limits rather than exact numbers.

What all share (conditions): with glucosamine-6-phosphate
In series [1] the parent is B1. The series can be described thus: kcat; higher = faster cleavage; RNA array. In a few lines: (§1)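 kcat and KM were obtained from weighted Michaelis–Menten fits across concentrations of kobs values. Those came from one- or two-exponential decay fits to per-tile medians normalised to baseline and to non-cleaving reference variants. The variants were barcoded ribozymes transcribed in situ by E. coli RNA polymerase on sequenced MiSeq chips and tracked through a hybridised Cy3 probe at 37 °C, with 40 μM to 10 mM glucosamine-6-phosphate in HEPES/KCl/Mg(OAc)2 buffer flowed in.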

In series [2] the parent is B1. Briefly: KM; higher = weaker cofactor use; RNA array. In a few lines:
as §1

Variants of B1 are the subject of series [3]. Briefly: self-cleavage kobs at 40 uM GlcN6P; higher = faster cleavage; RNA array. In a few lines: as §1
Series [4] covers variants of B1. The series can be described thus: self-cleavage kobs at 160 uM GlcN6P; higher = faster cleavage; RNA array. In a few lines: as §1
Variants of B1 are the subject of series [5]. The series can be described thus: self-cleavage kobs at 640 uM GlcN6P; higher = faster cleavage; RNA array. In a few lines: as §1
The variants in series [6] derive from B1. Briefly: self-cleavage kobs at 2500 uM GlcN6P; higher = faster cleavage; RNA array. In a few lines: as §1
Variants of B1 are the subject of series [7]. The series can be described thus: self-cleavage kobs at 10000 uM GlcN6P; higher = faster cleavage; RNA array. In a few lines:
as §1

As to U46G C68U, the kcat (usually the maximal rate divided by the concentration of active sites) in series [1] stood at 0.00128 ± 0.00018 s⁻¹. The KM (as a rule, the substrate concentration at which the rate is half of its maximum) in series [2] was found to be 1170 ± 300 µM. In series [3], the “self-cleavage kobs at 40 uM GlcN6P” value was 5.92e-05 ± 9.5e-06 s⁻¹. Further, the “self-cleavage kobs at 160 uM GlcN6P” value in series [4] was 0.000148 ± 2.3e-05 s⁻¹. Besides, the “self-cleavage kobs at 640 uM GlcN6P” value in series [5] was found to be 0.000378 ± 5.2e-05 s⁻¹. Moreover, the “self-cleavage kobs at 2500 uM GlcN6P” value in series [6] stood at 0.00102 ± 0.00018 s⁻¹. Besides, the “self-cleavage kobs at 10000 uM GlcN6P” value in series [7] is 0.00116 ± 0.00011 s⁻¹.
Regarding C10U U69C, the catalytic constant (kcat) in series [1] worked out at 2.21e-05 ± 5.7e-06 s⁻¹.
On the same count and under the same terms, in the case of U47G A52C it was 1.4e-05 ± 1.8e-06 s⁻¹.
In the case of G40C U55G, in series [1], the kcat was 0.000581 ± 0.00017 s⁻¹. In addition, in series [4], the “self-cleavage kobs at 160 uM GlcN6P” value is 0.000102 ± 2.2e-05 s⁻¹. In addition, in series [5], the “self-cleavage kobs at 640 uM GlcN6P” value was 0.000531 ± 0.0001 s⁻¹. In series [6], the “self-cleavage kobs at 2500 uM GlcN6P” value stood at 0.000712 ± 0.00015 s⁻¹. Besides, in series [7], the “self-cleavage kobs at 10000 uM GlcN6P” value was 0.00045 ± 8.6e-05 s⁻¹.
Take A52C G66C: the kcat in series [1] stood at 1.28e-05 ± 2.9e-06 s⁻¹. In addition, the “self-cleavage kobs at 40 uM GlcN6P” value in series [3] is less than 1e-05 s⁻¹. The “self-cleavage kobs at 640 uM GlcN6P” value in series [5] was less than 1e-05 s⁻¹.
Regarding U46A U56G, the turnover number (kcat) in series [1] came to 0.00195 ± 0.00071 s⁻¹. The “self-cleavage kobs at 160 uM GlcN6P” value in series [4] came to 9.87e-05 ± 1.5e-05 s⁻¹. For the same variant, the “self-cleavage kobs at 640 uM GlcN6P” value in series [5] stood at 0.000283 ± 6.8e-05 s⁻¹. Further, the “self-cleavage kobs at 2500 uM GlcN6P” value in series [6] amounted to 0.000603 ± 0.00011 s⁻¹. For the same variant, the “self-cleavage kobs at 10000 uM GlcN6P” value in series [7] was 0.00183 ± 0.00029 s⁻¹.
On to U47C C71G, for which, in series [1], the kcat is 0.000277 ± 6.2e-05 s⁻¹. Further, the “self-cleavage kobs at 640 uM GlcN6P” value in series [5] came out at 0.000116 ± 1.9e-05 s⁻¹. Further, the “self-cleavage kobs at 2500 uM GlcN6P” value in series [6] worked out at 0.000253 ± 3.8e-05 s⁻¹. Moreover, the “self-cleavage kobs at 10000 uM GlcN6P” value in series [7] stood at 0.000197 ± 5.1e-05 s⁻¹.
Consider U55G C58U, for which the catalytic constant (kcat) in series [1] turned out to be 0.00011 ± 7.5e-06 s⁻¹. In addition, in series [2], the Michaelis-Menten constant (KM) stood at 7880 ± 1100 µM. Besides, the “self-cleavage kobs at 2500 uM GlcN6P” value in series [6] was determined as 2.7e-05 ± 8.5e-06 s⁻¹. Also, in series [7], the “self-cleavage kobs at 10000 uM GlcN6P” value turned out to be 6.17e-05 ± 7.4e-06 s⁻¹.
C50U U57A G59C U65A C70U: the turnover number (kcat) in series [1] stood at 2.56e-05 ± 4.5e-06 s⁻¹. For the same variant, the Michaelis-Menten constant (KM) in series [2] was 293 ± 140 µM. The “self-cleavage kobs at 40 uM GlcN6P” value in series [3] is less than 1e-05 s⁻¹. Moreover, in series [7], the “self-cleavage kobs at 10000 uM GlcN6P” value is less than 1e-05 s⁻¹.
Turning to U30G U54G, the kcat in series [1] came out at 0.00551 ± 0.002 s⁻¹. In addition, the “self-cleavage kobs at 40 uM GlcN6P” value in series [3] came out at 0.000203 ± 4.6e-05 s⁻¹. In series [4], the “self-cleavage kobs at 160 uM GlcN6P” value is 0.000615 ± 0.0001 s⁻¹. Moreover, the “self-cleavage kobs at 640 uM GlcN6P” value in series [5] was found to be 0.00144 ± 0.00032 s⁻¹. In addition, the “self-cleavage kobs at 2500 uM GlcN6P” value in series [6] worked out at 0.00254 ± 0.00053 s⁻¹. The “self-cleavage kobs at 10000 uM GlcN6P” value in series [7] was 0.00743 ± 0.0011 s⁻¹.
Regarding C34A C67G, in series [1], the kcat is less than 1e-05 s⁻¹. Besides, the “self-cleavage kobs at 40 uM GlcN6P” value in series [3] is less than 1e-05 s⁻¹. The “self-cleavage kobs at 160 uM GlcN6P” value in series [4] was less than 1e-05 s⁻¹. Besides, the “self-cleavage kobs at 640 uM GlcN6P” value in series [5] is less than 1e-05 s⁻¹. In addition, the “self-cleavage kobs at 2500 uM GlcN6P” value in series [6] is less than 1e-05 s⁻¹.
For the variant U45A A53U, the kcat in series [1] was found to be 0.054 ± 0.013 s⁻¹. Besides, the Michaelis-Menten constant (KM) in series [2] amounted to 1720 ± 500 µM. For the same variant, in series [3], the “self-cleavage kobs at 40 uM GlcN6P” value turned out to be 0.00125 ± 0.00017 s⁻¹. Moreover, in series [4], the “self-cleavage kobs at 160 uM GlcN6P” value is 0.00351 ± 0.0016 s⁻¹. The “self-cleavage kobs at 640 uM GlcN6P” value in series [5] was found to be 0.0162 ± 0.0071 s⁻¹. The “self-cleavage kobs at 2500 uM GlcN6P” value in series [6] turned out to be 0.0671 ± 0.03 s⁻¹. Moreover, the “self-cleavage kobs at 10000 uM GlcN6P” value in series [7] turned out to be 0.0432 ± 0.012 s⁻¹.
Regarding G32A U46A, the kcat in series [1] is 0.000607 ± 2.1e-05 s⁻¹. In series [5], the “self-cleavage kobs at 640 uM GlcN6P” value worked out at 2.22e-05 ± 1.1e-05 s⁻¹. In addition, in series [6], the “self-cleavage kobs at 2500 uM GlcN6P” value was determined as 7.83e-05 ± 2.1e-05 s⁻¹. In series [7], the “self-cleavage kobs at 10000 uM GlcN6P” value amounted to 0.000226 ± 2.7e-05 s⁻¹.
Regarding G32A U46C, the kcat in series [1] came out at 0.000236 ± 2.1e-05 s⁻¹. Moreover, the Michaelis-Menten constant (KM) in series [2] was 1770 ± 290 µM. The “self-cleavage kobs at 640 uM GlcN6P” value in series [5] turned out to be 6.49e-05 ± 8.9e-06 s⁻¹. In series [6], the “self-cleavage kobs at 2500 uM GlcN6P” value is 0.000126 ± 2.3e-05 s⁻¹. For the same variant, the “self-cleavage kobs at 10000 uM GlcN6P” value in series [7] worked out at 0.000209 ± 3.3e-05 s⁻¹.
Turning to C67U C68A, in series [1], the kcat turned out to be 4.58e-05 ± 9.2e-06 s⁻¹. In addition, the “self-cleavage kobs at 640 uM GlcN6P” value in series [5] was determined as 4.09e-05 ± 9.8e-06 s⁻¹. In addition, the “self-cleavage kobs at 2500 uM GlcN6P” value in series [6] stood at 5.66e-05 ± 7.5e-06 s⁻¹. Also, the “self-cleavage kobs at 10000 uM GlcN6P” value in series [7] turned out to be 2.96e-05 ± 8.7e-06 s⁻¹.
As for G13A C70A, the kcat in series [1] turned out to be 2.43e-05 ± 6.3e-06 s⁻¹.
On to G13U U65G C67G, for which the kcat in series [1] is 7.46e-05 ± 2.9e-06 s⁻¹. Further, the Michaelis-Menten constant (KM) in series [2] was 808 ± 170 µM. Moreover, in series [6], the “self-cleavage kobs at 2500 uM GlcN6P” value came to 6.05e-05 ± 2.3e-05 s⁻¹. Also, the “self-cleavage kobs at 10000 uM GlcN6P” value in series [7] turned out to be 6.81e-05 ± 1.5e-05 s⁻¹.
For C61G G62U C68G, the kcat in series [1] was determined as 1.21e-05 ± 3.9e-06 s⁻¹.

The values above are taken from the supplement of paper PMC7125110.
